Residue numbers refer to the chain shown, from its start.
B1: Fab F97 (VH H90, VL IFWL124) (Fab, V domains shown)
VH: QVQLVQSGAEVKKPGSSVKVSCKASGGTFSSYAISWVRQAPGQGLEWMGGIIPIFGTANYAQKFQGRVTITADESTSTAYMELSSLRSEDTAVYYCARDASTYGDLDYWGQGTLVTVSS
VL: DIQMTQSPSSLSASVGDRVTITCRASQSIDGWLNWYQQKPGKAPKLLIYAASSLQSGVPSRFSGSGSGTDFTLTISSLQPEDFATYYCQQSYSTPLTFGQGTKVEIK
notes: Soluble Fab-His; converted to mAb B18
B2: Fab F53 (VH H2, VL L30) (Fab, V domains shown)
VH: B1 VH with A100D, S101L, T102P, Y103L, D105R
VL: EIVLTQSPATLSLSPGERATLSCRASQSVNKHLAWYQQKPGQAPRLLIYKASNRATGIPARFSGSGSGTDFTLTISSLEPEDFAVYYCQQGIRAPYTFGQGTKVEIK
notes: Soluble Fab-His; converted to mAb B4; also called P53
B3: Fab F86 (VH H80, VL L80) (Fab, V domains shown)
VH: QVQLVQSGAEVKKPGSSVKVSCKASGGTFSSYAISWVRQAPGQGLEWMGGIIPIFGTANYAQKFQGRVTITADESTSTAYMELSSLRSEDTAVYYCARPIGTGYYGFFDYWGQGTLVTVSS
VL: B1 VL with D30A, G31K, A50F
notes: Soluble Fab-His; converted to mAb B7
B4: Fab F50 (VH H25, VL L46) (Fab, V domains shown)
VH: B1 VH with A100D, S101L, T102A, Y103L, D105R
VL: B2 VL with N30S, K31S, H32F, K50T, G91S, I92H, Y96W
notes: Soluble Fab-His
B5: Fab F11 (VH H2, VL L9) (Fab, V domains shown)
VH: B1 VH with A100D, S101L, T102P, Y103L, D105R
VL: B2 VL with N30A, K31D, H32F, K50T, I92S, R93T
notes: Soluble Fab-His
B6: Fab F71 (VH H2, VL L65) (Fab, V domains shown)
VH: B1 VH with A100D, S101L, T102P, Y103L, D105R
VL: B2 VL with N30S, K31D, H32Y, K50D, I92S, R93D, Y96L
notes: Soluble Fab-His
B7: Fab F102 (VH H2, VL L91) (Fab, V domains shown)
VH: B1 VH with A100D, S101L, T102P, Y103L, D105R
VL: B2 VL with N30A, K31D, H32W, G91S, I92F, A94W, Y96L
notes: Soluble Fab-His
B8: Fab F32 (VH H7, VL PH9L4) (Fab, V domains shown)
VH: B1 VH with A100D, S101V, T102A, Y103L, D105R
VL: not shown
notes: Soluble Fab-His
B9: Fab F8 (VH H2, VL L7) (Fab, V domains shown)
VH: B1 VH with A100D, S101L, T102P, Y103L, D105R
VL: B2 VL with N30R, K31D, H32W, K50G, I92D, R93G, A94W, Y96W
notes: Soluble Fab-His
B10: Fab F96 (VH H89, VL IFWL124) (Fab, V domains shown)
VH: B1 VH with A100S, T102A, L106F
VL: B1 VL
notes: Soluble Fab-His; converted to mAb B8
B11: Fab F34 (VH H2, VL L28) (Fab, V domains shown)
VH: B1 VH with A100D, S101L, T102P, Y103L, D105R
VL: B2 VL with N30A, H32F, G91F, I92N, R93S, Y96I
notes: Soluble Fab-His; converted to mAb B5
B12: Fab F7 (VH H2, VL L6) (Fab, V domains shown)
VH: B1 VH with A100D, S101L, T102P, Y103L, D105R
VL: B2 VL with K31S, H32W, K50Y, I92H, A94W, Y96F
notes: Soluble Fab-His
B13: Fab F62 (VH H54, VL GCGL18) (Fab, V domains shown)
VH: B1 VH with D99E, A100D, S101V, T102A, Y103L, D105R
VL: not shown
notes: Soluble Fab-His
B14: Fab F9 (VH H2, VL L8) (Fab, V domains shown)
VH: B1 VH with A100D, S101L, T102P, Y103L, D105R
VL: B2 VL with N30A, H32D, K50T, R93N, A94W, Y96F
notes: Soluble Fab-His
B15: Fab F143 (VH H148, VL H2RL12) (Fab, V domains shown)
VH: B1 VH with A100F, T102V, L106F
VL: B1 VL with D30A, G31K
notes: Soluble Fab-His; converted to mAb B13
B16: Fab F73 (VH H66, VL L67) (Fab, V domains shown)
VH: B1 VH with A100L, S101Y, T102I
VL: B1 VL with D30G, A50T, S93T, T94Y, L96I
notes: Soluble Fab-His; converted to mAb B6
B17: Fab F13 (VH H2, VL L11) (Fab, V domains shown)
VH: B1 VH with A100D, S101L, T102P, Y103L, D105R
VL: B2 VL with N30A, K31D, H32W, K50N, G91Y, A94W, Y96I
notes: Soluble Fab-His
B18: Fab F104 (VH H96, VL IFWL124) (Fab, V domains shown)
VH: B1 VH with T57N, A58T, A100I, T102G
VL: B1 VL
notes: Soluble Fab-His; converted to mAb B14
B19: Fab F3 (VH H2, VL L2) (Fab, V domains shown)
VH: B1 VH with A100D, S101L, T102P, Y103L, D105R
VL: B2 VL with K31N, H32F, K50G, G91F, I92K, R93G, Y96L
notes: Soluble Fab-His
B20: Fab F45 (VH H2, VL L34) (Fab, V domains shown)
VH: B1 VH with A100D, S101L, T102P, Y103L, D105R
VL: B2 VL with N30S, K31S, H32W, K50Y, G91F, I92K, R93G, A94W, Y96F
notes: Soluble Fab-His
B21: Fab F43 (VH H2, VL L44) (Fab, V domains shown)
VH: B1 VH with A100D, S101L, T102P, Y103L, D105R
VL: B2 VL with N30A, H32F, G91Y, I92S, R93T, A94W, Y96F
notes: Soluble Fab-His
B22: Fab F2 (VH H2, VL L1) (Fab, V domains shown)
VH: B1 VH with A100D, S101L, T102P, Y103L, D105R
VL: B2 VL with N30R, K31N, H32F, K50D, I92Y, Y96I
notes: Soluble Fab-His
B23: Fab F35 (VH H25, VL L29) (Fab, V domains shown)
VH: B1 VH with A100D, S101L, T102A, Y103L, D105R
VL: B2 VL with N30A, H32F, I92H, R93G, A94W, Y96R
notes: Soluble Fab-His
B24: Fab F123 (VH H120, VL PH9L4) (Fab, V domains shown)
VH: B3 VH with P99H, I100D, G101V, T102N, G103S, Y104L, Y105W, G106A, F107Y
VL: not shown
notes: Soluble Fab-His
B25: Fab F142 (VH H146, VL L121) (Fab, V domains shown)
VH: B3 VH with P99G, I100D, G101Y, T102N, G103A, Y104I, G106Y, F107A, F108L
VL: B1 VL with D30S, G31S, W32Y, S91P, Y92I, T94F, L96Y
notes: Soluble Fab-His
B26: Fab F133 (VH H134, VL L117) (Fab, V domains shown)
VH: QVQLVQSGAEVKKPGSSVKVSCKASGGTFSSYAISWVRQAPGQGLEWMGGIIPIFGTANYAQKFQGRVTITADESTSTAYMELSSLRSEDTAVYYCARGADSNAVRLVGFDYWGQGTLVTVSS
VL: EIVLTQSPGTLSLSPGERATLSCRASQSVAYSSLAWYQQKPGQAPRLLIYAASSRATGIPDRFSGSGSGTDFTLTISRLEPEDFAVYYCQQSNTPPLTFGQGTKVEIK
notes: Soluble Fab-His
B27: Fab F144 (VH H149, VL L122) (Fab, V domains shown)
VH: QVQLVQSGAEVKKPGSSVKVSCKASGGTFSSYGISWVRQAPGQGLEWMGGIIPIFGTANYAQKFQGRVTITADESTSTAYMELSSLRSEDTAVYYCAREDVNYISTYSEFDYWGQGTLVTVSS
VL: B26 VL with A30R, Y31K, S33G, A51N, S92A, N93T, T94K
notes: Soluble Fab-His
B28: Fab F17 (VH H11, VL L14) (Fab, V domains shown)
VH: EVQLVQSGAEVKKPGESLKISCKGSGYSFTSYWIGWVRQMPGKGLEWMGIIYPGDSDTRYSPSFQGQVTISADKSISTAYLQWSSLKASDTAMYYCARPYGTFDYWGQGTLVTVSS
VL: B2 VL with N30A, K31D, H32S, G91S, I92N, R93G, A94W, Y96R
notes: Soluble Fab-His (E. coli supernatant); converted to mAb B3
B29: Fab F121 (VH H115, VL L106) (Fab, V domains shown)
VH: B3 VH with P99G, I100D, G101A, T102N, G103A, Y104L, G106D, F107Y
VL: B2 VL with N30S, K31N, H32W, K50T, G91R, I92Y, R93T, Y96W
notes: Soluble Fab-His

Experiments:
[1] = target: T1, recombinant human ATX beta isoform with N-terminal purification tag (human, UniProt Q13822 49-863); experiment: ELISA, Fab-His captured by anti-Fd, 5 nM biotinylated human ATX beta
Method: (§1) Fabs were captured on black MaxiSorp plates (Nunc, Cat. No. 437111) coated with 1 μg/ml sheep anti-human Fd (CH1) antibody (The Binding Site, Cat. No. PC075). Plates were washed and biotinylated human ATX was added to the captured Fabs at 5 nM. Incubation was carried out for 1 hour at room temperature with gentle shaking. Plates were washed, SA-HRP (Invitrogen, Cat. No. 43-4323) was added and chemiluminescent detection carried out.
(§2) Clones with binding above background were sequenced and unique clones identified. […] These clones were identified with binding signal to human ATX at least 6-fold above the background. Table 3 lists the identifier for VH and VL (Peptide ID) and the combination of both (Fab ID) sorted by the Fab ELISA binding data.

[2] = target: T1, recombinant human ATX beta isoform with …; experiment: Fab-His ELISA
Method: as §1, §2

Row | Binder | Fab Binding [1] | fold above background [2]
1 | B1 | 5.8e+06 relative chemiluminescence units | ≥ 6 fold
2 | B2 | 2.4e+06 relative chemiluminescence units | ≥ 6 fold
3 | B3 | 4.2e+06 relative chemiluminescence units | ≥ 6 fold
4 | B4 | 1.9e+06 relative chemiluminescence units | ≥ 6 fold
5 | B5 | 1.8e+06 relative chemiluminescence units | ≥ 6 fold
6 | B6 | 1.7e+06 relative chemiluminescence units | ≥ 6 fold
7 | B7 | 1.3e+06 relative chemiluminescence units | ≥ 6 fold
8 | B8 | 2e+06 relative chemiluminescence units | ≥ 6 fold
9 | B9 | 1.6e+06 relative chemiluminescence units | ≥ 6 fold
10 | B10 | 5.9e+06 relative chemiluminescence units | ≥ 6 fold
11 | B11 | 2.3e+06 relative chemiluminescence units | ≥ 6 fold
12 | B12 | 1.8e+06 relative chemiluminescence units | ≥ 6 fold
13 | B13 | 1.6e+06 relative chemiluminescence units | ≥ 6 fold
14 | B14 | 1e+06 relative chemiluminescence units | ≥ 6 fold
15 | B15 | 4.9e+06 relative chemiluminescence units | ≥ 6 fold
16 | B16 | 1.7e+07 relative chemiluminescence units | ≥ 6 fold
17 | B17 | 1.1e+06 relative chemiluminescence units | ≥ 6 fold
18 | B18 | 5.1e+06 relative chemiluminescence units | ≥ 6 fold
19 | B19 | 1.4e+06 relative chemiluminescence units | ≥ 6 fold
20 | B20 | 1.2e+06 relative chemiluminescence units | ≥ 6 fold
21 | B21 | 980000 relative chemiluminescence units | ≥ 6 fold
22 | B22 | 1.5e+06 relative chemiluminescence units | ≥ 6 fold
23 | B23 | 2.1e+06 relative chemiluminescence units | ≥ 6 fold
24 | B24 | 1.4e+06 relative chemiluminescence units | ≥ 6 fold
25 | B25 | 1.3e+06 relative chemiluminescence units | ≥ 6 fold
26 | B26 | 1.2e+06 relative chemiluminescence units | ≥ 6 fold
27 | B27 | 1.2e+06 relative chemiluminescence units | ≥ 6 fold
28 | B28 | 2.4e+07 relative chemiluminescence units | ≥ 6 fold
29 | B29 | 1.4e+06 relative chemiluminescence units | ≥ 6 fold

From patent US20150087812A1 (Janssen / Centocor, published 2015)
